According to IntAct's records for PubMed 17185412:

Legend:
syt1_mouse Syt1 = syt1_mouse Syt1 (UniProt P46096)
syt2_mouse Syt2 = syt2_mouse Syt2 (UniProt P46097)

| Substance | effect of a mutation on the interaction (syt1_mouse Syt1) | effect of a mutation on the interaction (syt2_mouse Syt2) |
| --- | --- | --- |
| Botulinum neurotoxin type B (Clostridium botulinum) (from UniProt P10844) K1192E | decreasing interaction strength |  |
| Botulinum neurotoxin type B (Clostridium botulinum) (from UniProt P10844) K1192M | decreasing interaction strength |  |
| Botulinum neurotoxin type B (Clostridium botulinum) (from UniProt P10844) V1118D | decreasing interaction strength | decreasing interaction strength |
| Botulinum neurotoxin type B (Clostridium botulinum) (from UniProt P10844) W1262L | decreasing interaction strength |  |
| Botulinum neurotoxin type B (Clostridium botulinum) (from UniProt P10844) Y1183R | decreasing interaction strength | decreasing interaction strength |
